The text below walks through data of publication PMC12204462.

What is called pKd is −log10 of the Kd, conventionally taken in molar units. A lower pKd goes with a large Kd.

pKd: −log10 of the molar value.

In the series the test system is AsCas12a. The experiment in a line: BLI. The following applies: not stated in material.
As to cDNA with 5' handle, the pKd was > 7.43.

The substance ΨDNA (cDNA with 3' handle; BLI) had a pKd of 7.61.

Consider crRNA (BLI), for which the pKd was 8.43.
